Measurements taken from patent publication US20250382344A1, “Soluble GLP1/GIP/NPY2 Receptor Triple Agonists” (Boehringer Ingelheim International GmH, priority 2024, published 2025).
Residue numbers refer to the chain shown, from its start. *1 amine or outer side, *2 acyl side, *3 side chain or, on linkers, in order; H or OH if unused. Where no end group is shown, it is not given here. Side-chain parts run from the residue outwards. [ ]: non-standard residue; d: D form. The star is where a group is joined. C20 diacid = O=C(O)CCCCCCCCCCCCCCCCCCC(=O)*; C18 diacid = O=C(O)CCCCCCCCCCCCCCCCC(=O)*; γGlu = O=C(O)[C@H](CCC(=O)[*:2])N[*:1]; εLys = N[C@@H](CCCCN[*:1])C(=O)[*:2]; NMeQ = CN[C@@H](CCC(N)=O)C(=O)O; dtOrn = not defined here; AEEA = NCCOCCOCC(=O)O; Aib = CC(C)(N)C(=O)O

T1: human GIP receptor (human, UniProt P48546 22-466)
T1 sequence (looked up): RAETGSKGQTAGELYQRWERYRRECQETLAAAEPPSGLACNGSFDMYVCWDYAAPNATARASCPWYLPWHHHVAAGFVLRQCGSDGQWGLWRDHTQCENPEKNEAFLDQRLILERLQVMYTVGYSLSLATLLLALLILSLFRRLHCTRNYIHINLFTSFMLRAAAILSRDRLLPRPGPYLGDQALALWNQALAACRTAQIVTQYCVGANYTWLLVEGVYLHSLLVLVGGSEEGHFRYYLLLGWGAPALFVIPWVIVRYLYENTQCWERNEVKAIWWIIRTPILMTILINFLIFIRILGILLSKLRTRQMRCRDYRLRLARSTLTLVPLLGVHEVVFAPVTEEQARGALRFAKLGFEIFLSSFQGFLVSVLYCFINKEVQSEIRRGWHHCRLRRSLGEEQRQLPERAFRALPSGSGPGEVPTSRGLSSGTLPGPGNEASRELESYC

T2: human neuropeptide Y2 receptor (human, UniProt P49146 1-381)
T2 sequence (looked up): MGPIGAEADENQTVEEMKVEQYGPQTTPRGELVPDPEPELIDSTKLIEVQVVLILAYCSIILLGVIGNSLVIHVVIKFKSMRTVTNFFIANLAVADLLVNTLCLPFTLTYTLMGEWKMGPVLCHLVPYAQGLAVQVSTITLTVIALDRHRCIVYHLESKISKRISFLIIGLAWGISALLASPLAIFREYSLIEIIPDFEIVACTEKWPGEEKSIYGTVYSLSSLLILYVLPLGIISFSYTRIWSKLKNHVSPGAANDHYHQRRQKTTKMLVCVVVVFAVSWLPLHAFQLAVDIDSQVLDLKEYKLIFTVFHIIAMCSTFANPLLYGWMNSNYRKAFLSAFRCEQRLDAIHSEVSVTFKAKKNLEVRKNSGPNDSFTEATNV

B1: Compound 129 (peptide)
peptide: Y[Aib]EGTFTSDYSI[Aib]LEEQAQ[Aib]EFVRHLINK([γGlu-γGlu-γGlu-γGlu-C18 diacid])[Aib]TRQRY-NH2
modifications: N-terminus assumed
SMILES: CC[C@H](C)[C@H](NC(=O)[C@H](CC(C)C)NC(=O)[C@H](Cc1c[nH]cn1)NC(=O)[C@H](CCCNC(=N)N)NC(=O)[C@@H](NC(=O)[C@H](Cc1ccccc1)NC(=O)[C@H](CCC(=O)O)NC(=O)C(C)(C)NC(=O)[C@H](CCC(N)=O)NC(=O)[C@H](C)NC(=O)[C@H](CCC(N)=O)NC(=O)[C@H](CCC(=O)O)NC(=O)[C@H](CCC(=O)O)NC(=O)[C@H](CC(C)C)NC(=O)C(C)(C)NC(=O)[C@@H](NC(=O)[C@H](CO)NC(=O)[C@H](Cc1ccc(O)cc1)NC(=O)[C@H](CC(=O)O)NC(=O)[C@H](CO)NC(=O)[C@@H](NC(=O)[C@H](Cc1ccccc1)NC(=O)[C@@H](NC(=O)CNC(=O)[C@H](CCC(=O)O)NC(=O)C(C)(C)NC(=O)[C@@H](N)Cc1ccc(O)cc1)[C@@H](C)O)[C@@H](C)O)[C@@H](C)CC)C(C)C)C(=O)N[C@@H](CC(N)=O)C(=O)N[C@@H](CCCCNC(=O)CC[C@H](NC(=O)CC[C@H](NC(=O)CC[C@H](NC(=O)CC[C@H](NC(=O)CCCCCCCCCCCCCCCCC(=O)O)C(=O)O)C(=O)O)C(=O)O)C(=O)O)C(=O)NC(C)(C)C(=O)N[C@H](C(=O)N[C@@H](CCCNC(=N)N)C(=O)N[C@@H](CCC(N)=O)C(=O)N[C@@H](CCCNC(=N)N)C(=O)N[C@@H](Cc1ccc(O)cc1)C(N)=O)[C@@H](C)O
B2: Compound 114 (peptide)
peptide: Y[Aib]EGTFTSDYSI[Aib]LEKQAQ[Aib]AFVRHLINK([γGlu-γGlu-γGlu-γGlu-γGlu-γGlu-C20 diacid])[Aib]TR[NMeQ]RY-NH2
modifications: N-terminus assumed
SMILES: CC[C@H](C)[C@H](NC(=O)[C@H](CC(C)C)NC(=O)[C@H](Cc1c[nH]cn1)NC(=O)[C@H](CCCNC(=N)N)NC(=O)[C@@H](NC(=O)[C@H](Cc1ccccc1)NC(=O)[C@H](C)NC(=O)C(C)(C)NC(=O)[C@H](CCC(N)=O)NC(=O)[C@H](C)NC(=O)[C@H](CCC(N)=O)NC(=O)[C@H](CCCCN)NC(=O)[C@H](CCC(=O)O)NC(=O)[C@H](CC(C)C)NC(=O)C(C)(C)NC(=O)[C@@H](NC(=O)[C@H](CO)NC(=O)[C@H](Cc1ccc(O)cc1)NC(=O)[C@H](CC(=O)O)NC(=O)[C@H](CO)NC(=O)[C@@H](NC(=O)[C@H](Cc1ccccc1)NC(=O)[C@@H](NC(=O)CNC(=O)[C@H](CCC(=O)O)NC(=O)C(C)(C)NC(=O)[C@@H](N)Cc1ccc(O)cc1)[C@@H](C)O)[C@@H](C)O)[C@@H](C)CC)C(C)C)C(=O)N[C@@H](CC(N)=O)C(=O)N[C@@H](CCCCNC(=O)CC[C@H](NC(=O)CC[C@H](NC(=O)CC[C@H](NC(=O)CC[C@H](NC(=O)CC[C@H](NC(=O)CC[C@H](NC(=O)CCCCCCCCCCCCCCCCCCC(=O)O)C(=O)O)C(=O)O)C(=O)O)C(=O)O)C(=O)O)C(=O)O)C(=O)NC(C)(C)C(=O)N[C@H](C(=O)N[C@@H](CCCNC(=N)N)C(=O)N(C)[C@@H](CCC(N)=O)C(=O)N[C@@H](CCCNC(=N)N)C(=O)N[C@@H](Cc1ccc(O)cc1)C(N)=O)[C@@H](C)O
B3: Compound 88 (peptide)
peptide: YXEGTFTSDYSIXLEKQAQXAFIRHLINKXTRQRY
modifications: Aib at 2, 13, 20, 30; Lys29 epsilon-amino: C18DA-gGlu-gGlu-gGlu-gGlu-gGlu-gGlu-eLys; C-terminal amide
B4: Compound 96 (peptide)
peptide: B3 peptide with I23V, R34X
modifications: Aib at 2, 13, 20, 30; dOR at 34; Lys29 epsilon-amino: C18DA-gGlu-gGlu-gGlu-gGlu-gGlu; C-terminal amide
B5: Compound 119 (peptide)
peptide: B3 peptide with I23V
modifications: Aib at 2, 20, 30; aMeL at 13; Lys29 epsilon-amino: C18DA-gGlu-gGlu-gGlu-gGlu-gGlu-gGlu-eLys; C-terminal amide
B6: Compound 112 (peptide)
peptide: B3 peptide with I12E, I23V
modifications: Aib at 2, 13, 20, 30; Lys29 epsilon-amino: C18DA-gGlu-gGlu-gGlu-gGlu-gGlu-gGlu-eLys; C-terminal amide
B7: Compound 164 (peptide)
peptide: B3 peptide with Q17E, I23V
modifications: Aib at 2, 13, 20, 30; Lys29 epsilon-amino: C18DA-gGlu-gGlu-gGlu-gGlu-gGlu-gGlu-eLys; C-terminal amide
B8: Compound 91 (peptide)
peptide: B3 peptide with A18R, I23V
modifications: Aib at 2, 13, 20, 30; Lys29 epsilon-amino: C18DA-gGlu-gGlu-gGlu-gGlu-gGlu-gGlu-eLys; C-terminal amide
B9: Compound 110 (peptide)
peptide: Y[Aib]EGTFTSDYSI[Aib]LEKQAQ[Aib]AFVRHLINK([AEEA-γGlu-γGlu-γGlu-γGlu-C18 diacid])[Aib]TRQRY-NH2
modifications: N-terminus assumed
SMILES: CC[C@H](C)[C@H](NC(=O)[C@H](CC(C)C)NC(=O)[C@H](Cc1c[nH]cn1)NC(=O)[C@H](CCCNC(=N)N)NC(=O)[C@@H](NC(=O)[C@H](Cc1ccccc1)NC(=O)[C@H](C)NC(=O)C(C)(C)NC(=O)[C@H](CCC(N)=O)NC(=O)[C@H](C)NC(=O)[C@H](CCC(N)=O)NC(=O)[C@H](CCCCN)NC(=O)[C@H](CCC(=O)O)NC(=O)[C@H](CC(C)C)NC(=O)C(C)(C)NC(=O)[C@@H](NC(=O)[C@H](CO)NC(=O)[C@H](Cc1ccc(O)cc1)NC(=O)[C@H](CC(=O)O)NC(=O)[C@H](CO)NC(=O)[C@@H](NC(=O)[C@H](Cc1ccccc1)NC(=O)[C@@H](NC(=O)CNC(=O)[C@H](CCC(=O)O)NC(=O)C(C)(C)NC(=O)[C@@H](N)Cc1ccc(O)cc1)[C@@H](C)O)[C@@H](C)O)[C@@H](C)CC)C(C)C)C(=O)N[C@@H](CC(N)=O)C(=O)N[C@@H](CCCCNC(=O)COCCOCCNC(=O)CC[C@H](NC(=O)CC[C@H](NC(=O)CC[C@H](NC(=O)CC[C@H](NC(=O)CCCCCCCCCCCCCCCCC(=O)O)C(=O)O)C(=O)O)C(=O)O)C(=O)O)C(=O)NC(C)(C)C(=O)N[C@H](C(=O)N[C@@H](CCCNC(=N)N)C(=O)N[C@@H](CCC(N)=O)C(=O)N[C@@H](CCCNC(=N)N)C(=O)N[C@@H](Cc1ccc(O)cc1)C(N)=O)[C@@H](C)O

Experiments:
Assay in all cases: cell-based or functional assay
human GIP receptor = target: T1, human GIP receptor
human GLP-1 receptor = human GLP-1 receptor (human, UniProt P43220 24-463)
[1] = target: T2, human neuropeptide Y2 receptor

Binder	EC50, CreLuc reporter, 0.5% hP (human GIP receptor)	EC50, CreLuc reporter, 100% hP (human GIP receptor)	EC50, CreLuc reporter, 0.5% hP (human GLP-1 receptor)	EC50, CreLuc reporter, 100% hP (human GLP-1 receptor)	EC50, CreLuc reporter, 0.5% hP [1]	EC50, CreLuc reporter, 100% hP [1]
B1	0.4 nM	7.1 nM	0.9 nM	2.8 nM	213 nM	827 nM
B2	0.5 nM	–	1.8 nM	10 nM	82.1 nM	657 nM
Y[Aib]EGTFTSDLSI[Aib]LEKQAQ[Aib]AFVRHLINK([γGlu-γGlu-εLys-γGlu-γGlu-γGlu-γGlu-C20 diacid])[Aib]TRQRY-NH2 [Compound 166]	0.6 nM	–	8 nM	–	–	–
Y[Aib]EGTFTSDYSI[Aib]LEKQAQ[Aib]AFVRHLINK([dtOrn-γGlu-γGlu-γGlu-γGlu-γGlu-γGlu-C20 diacid])[Aib]TRQRY-NH2 (reading uncertain) [Compound 97]	–	12.7 nM	3.8 nM	16.8 nM	11.7 nM	135 nM
B3	0.1 nM	1.7 nM	0.2 nM	1.8 nM	–	30.9 nM
B4	0.3 nM	1.7 nM	0.9 nM	1.7 nM	23 nM	125 nM
B5	–	0.8 nM	0.1 nM	–	–	43.7 nM
B6	0.5 nM	10.3 nM	–	31.6 nM	–	27.9 nM
B7	0.4 nM	–	0.6 nM	–	–	–
B8	0.8 nM	14.4 nM	–	13.7 nM	9.7 nM	45.2 nM
B9	–	3.8 nM	0.7 nM	2.3 nM	14.2 nM	51.4 nM
